# Experimental data reported in article PMC6555819, “Comprehensive study of nuclear receptor DNA binding provides a revised framework for understanding receptor specificity”.
# Molecular target: LXRb:RXRa (Homo sapiens, UniProt P55055;P19793 full;full)
# Test: no ligand; PBM; 270 nM : 90 nM RXRa; PBS pH 7.4, 2% milk, 0.02% Triton X-100, 1 mM DTT, BSA, 0.4 mg/ml salmon testes DNA
# Details: tags: His kept;His cleaved; copies: 1;1; label: surface-attached array probe
# Procedure, shortened: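 Ligand-free nuclear receptor dimers were applied to custom Agilent 4×180K protein-binding microarrays whose double-stranded probes carried direct-repeat seeds, single-nucleotide variants, half-site ablations and random human genomic background sequences in 34-nt variable regions. Incubation lasted 1 h. Binding z-scores were computed against the random background probes from regression-normalized fluorescence.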
# Sequence of LXRb:RXRa (P55055 whole entry, chain 1 of 2): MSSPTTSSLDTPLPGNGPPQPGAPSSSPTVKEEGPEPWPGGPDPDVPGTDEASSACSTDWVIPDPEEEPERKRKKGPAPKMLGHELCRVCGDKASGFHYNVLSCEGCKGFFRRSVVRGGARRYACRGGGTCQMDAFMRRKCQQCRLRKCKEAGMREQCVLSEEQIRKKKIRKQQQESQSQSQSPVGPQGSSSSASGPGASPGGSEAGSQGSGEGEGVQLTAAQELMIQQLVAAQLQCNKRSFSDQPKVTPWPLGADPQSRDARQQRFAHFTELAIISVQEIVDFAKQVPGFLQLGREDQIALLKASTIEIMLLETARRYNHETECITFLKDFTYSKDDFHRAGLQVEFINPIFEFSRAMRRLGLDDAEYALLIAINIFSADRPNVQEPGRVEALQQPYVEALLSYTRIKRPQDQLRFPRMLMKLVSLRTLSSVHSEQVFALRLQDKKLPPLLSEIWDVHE
# Sequence of LXRb:RXRa (P19793 whole entry, chain 2 of 2): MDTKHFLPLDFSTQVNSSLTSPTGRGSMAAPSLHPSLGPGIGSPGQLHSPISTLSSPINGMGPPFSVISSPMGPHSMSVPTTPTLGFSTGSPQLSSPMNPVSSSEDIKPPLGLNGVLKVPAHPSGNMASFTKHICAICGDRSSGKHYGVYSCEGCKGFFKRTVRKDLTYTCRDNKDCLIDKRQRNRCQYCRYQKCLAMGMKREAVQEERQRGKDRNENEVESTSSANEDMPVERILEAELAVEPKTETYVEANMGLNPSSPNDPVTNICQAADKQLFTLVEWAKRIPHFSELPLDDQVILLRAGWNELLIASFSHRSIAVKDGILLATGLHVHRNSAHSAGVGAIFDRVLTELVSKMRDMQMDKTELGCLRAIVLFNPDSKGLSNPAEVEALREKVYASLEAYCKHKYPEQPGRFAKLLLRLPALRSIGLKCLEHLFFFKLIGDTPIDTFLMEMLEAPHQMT
row,Binder,binding signal
1,NRC3_wobSeed50_DR2_T9G_o1 (dsDNA) DNA 1: GCCCTAGTGGGTCAGGAGGTCACACACCGGATATGAGCGATTGACAGCGTAGAATGAAGG DNA 2: CCTTCATTCTACGCTGTCAATCGCTCATATCCGGTGTGTGACCTCCTGACCCACTAGGGC,3.76 PBM z-score against 500 random probes
2,NRC3_wobSeed50_DR2_C4T_o1 (dsDNA) DNA 1: GCCTTAGTTGGTCAGGAGGTCACACACCGGATATGAGCGATTGACAGCGTAGAATGAAGG DNA 2: CCTTCATTCTACGCTGTCAATCGCTCATATCCGGTGTGTGACCTCCTGACCAACTAAGGC,3.43 PBM z-score against 500 random probes
3,NRC3_wobSeed50_DR2_T8A_o1 (dsDNA) DNA 1: GCCCTAGATGGTCAGGAGGTCACACACCGGATATGAGCGATTGACAGCGTAGAATGAAGG DNA 2: CCTTCATTCTACGCTGTCAATCGCTCATATCCGGTGTGTGACCTCCTGACCATCTAGGGC,3.37 PBM z-score against 500 random probes
4,NRC3_wobSeed76_DR3_C13A_o1 (dsDNA) DNA 1: GCCCTACTGGGCAAAAAAGGTCATTGATGCCGATAAGCGATTGACAGCGTAGAATGAAGG DNA 2: CCTTCATTCTACGCTGTCAATCGCTTATCGGCATCAATGACCTTTTTTGCCCAGTAGGGC,3.73 PBM z-score against 500 random probes
5,NRC3_wobSeed130_DR5_C17G_o1 (dsDNA) DNA 1: GCCTCGAAAGGTCGTGGTCAGGTGAGTATACCAAACGCGATTGACAGCGTAGAATGAAGG DNA 2: CCTTCATTCTACGCTGTCAATCGCGTTTGGTATACTCACCTGACCACGACCTTTCGAGGC,3.33 PBM z-score against 500 random probes
6,NRC3_wobSeed116_DR4_G26T_o1 (dsDNA) DNA 1: GCAGAATGAGGTTACCAAAGATCAGTGAAACGCTTGGCGATTGACAGCGTAGAATGAAGG DNA 2: CCTTCATTCTACGCTGTCAATCGCCAAGCGTTTCACTGATCTTTGGTAACCTCATTCTGC,3.35 PBM z-score against 500 random probes
7,NRC3_wobSeed116_DR4_A6G_o1 (dsDNA) DNA 1: GCAGAGTGAGGTTACCAAAGATCAGGGAAACGCTTGGCGATTGACAGCGTAGAATGAAGG DNA 2: CCTTCATTCTACGCTGTCAATCGCCAAGCGTTTCCCTGATCTTTGGTAACCTCACTCTGC,3.28 PBM z-score against 500 random probes
8,NRC3_wobSeed125_DR5_G17T_o1 (dsDNA) DNA 1: GCCCTTACGGGTCACTTACAGGTTATAGCATTTGGAGCGATTGACAGCGTAGAATGAAGG DNA 2: CCTTCATTCTACGCTGTCAATCGCTCCAAATGCTATAACCTGTAAGTGACCCGTAAGGGC,3.58 PBM z-score against 500 random probes
9,NRC3_wobSeed125_DR5_G22C_o1 (dsDNA) DNA 1: GCCCTTACGGGTCACTGACAGCTTATAGCATTTGGAGCGATTGACAGCGTAGAATGAAGG DNA 2: CCTTCATTCTACGCTGTCAATCGCTCCAAATGCTATAAGCTGTCAGTGACCCGTAAGGGC,3.19 PBM z-score against 500 random probes
10,NRC3_wobSeed4_DR0_A14G_o1 (dsDNA) DNA 1: GCCCTACTGGGCCGAGGTCATTGATCAGTCAAAGCAGCGATTGACAGCGTAGAATGAAGG DNA 2: CCTTCATTCTACGCTGTCAATCGCTGCTTTGACTGATCAATGACCTCGGCCCAGTAGGGC,3.45 PBM z-score against 500 random probes
11,NRC3_wobSeed4_DR0_T25C_o1 (dsDNA) DNA 1: GCCCTACTGGGCCAAGGTCATTGACCAGTCAAAGCAGCGATTGACAGCGTAGAATGAAGG DNA 2: CCTTCATTCTACGCTGTCAATCGCTGCTTTGACTGGTCAATGACCTTGGCCCAGTAGGGC,3.2 PBM z-score against 500 random probes
12,NRC3_wobSeed69_DR2_A21T_o1 (dsDNA) DNA 1: GCAGTCAAAGTTCACTAGGTTACGTAAGATTCAGCTGCGATTGACAGCGTAGAATGAAGG DNA 2: CCTTCATTCTACGCTGTCAATCGCAGCTGAATCTTACGTAACCTAGTGAACTTTGACTGC,3.64 PBM z-score against 500 random probes
13,NRC3_wobSeed98_DR4_C29A_o1 (dsDNA) DNA 1: GCACTAGTTGGTCAGCTGAGGTCACACAAAATTCGGGCGATTGACAGCGTAGAATGAAGG DNA 2: CCTTCATTCTACGCTGTCAATCGCCCGAATTTTGTGTGACCTCAGCTGACCAACTAGTGC,3.75 PBM z-score against 500 random probes
14,NRC3_wobSeed98_DR4_A19G_o1 (dsDNA) DNA 1: GCACTAGTTGGTCAGCTGGGGTCACACACAATTCGGGCGATTGACAGCGTAGAATGAAGG DNA 2: CCTTCATTCTACGCTGTCAATCGCCCGAATTGTGTGTGACCCCAGCTGACCAACTAGTGC,3.54 PBM z-score against 500 random probes
15,NRC3_wobSeed58_DR2_C5G_o1 (dsDNA) DNA 1: GCATGGAAAGGTCGTGAGGTGAGTATACAGAAAGGCGCGATTGACAGCGTAGAATGAAGG DNA 2: CCTTCATTCTACGCTGTCAATCGCGCCTTTCTGTATACTCACCTCACGACCTTTCCATGC,3.62 PBM z-score against 500 random probes
16,NRC3_wobSeed58_DR2_A25T_o1 (dsDNA) DNA 1: GCATCGAAAGGTCGTGAGGTGAGTTTACAGAAAGGCGCGATTGACAGCGTAGAATGAAGG DNA 2: CCTTCATTCTACGCTGTCAATCGCGCCTTTCTGTAAACTCACCTCACGACCTTTCGATGC,3.5 PBM z-score against 500 random probes
17,NRC3_wobSeed27_DR1_C4G_o1 (dsDNA) DNA 1: GCAGTCGGAGGACAAAGGTCAGAGCTACGCCAGTGAGCGATTGACAGCGTAGAATGAAGG DNA 2: CCTTCATTCTACGCTGTCAATCGCTCACTGGCGTAGCTCTGACCTTTGTCCTCCGACTGC,3.47 PBM z-score against 500 random probes

row,Binder,binding signal
1,NRC3_wobSeed92_DR3_A9G_o1 (dsDNA) DNA 1: GCAGAATGGGGTTATTAAGATCAGGGAATTGCGGTCGCGATTGACAGCGTAGAATGAAGG DNA 2: CCTTCATTCTACGCTGTCAATCGCGACCGCAATTCCCTGATCTTAATAACCCCATTCTGC,3.86 PBM z-score against 500 random probes
2,NRC3_wobSeed18_DR0_o1 (dsDNA) DNA 1: GCGATACAGGGTCAAGGCCAGAGTACGCGTATTGATGCGATTGACAGCGTAGAATGAAGG DNA 2: CCTTCATTCTACGCTGTCAATCGCATCAATACGCGTACTCTGGCCTTGACCCTGTATCGC,3.7 PBM z-score against 500 random probes
3,NRC3_wobSeed2_DR0_C4A_o1 (dsDNA) DNA 1: GCCATAGTTGGTCAAGGTCACACACGCTATAGGTACGCGATTGACAGCGTAGAATGAAGG DNA 2: CCTTCATTCTACGCTGTCAATCGCGTACCTATAGCGTGTGTGACCTTGACCAACTATGGC,3.81 PBM z-score against 500 random probes
4,NRC3_wobSeed2_DR0_A22G_o1 (dsDNA) DNA 1: GCCCTAGTTGGTCAAGGTCACGCACGCTATAGGTACGCGATTGACAGCGTAGAATGAAGG DNA 2: CCTTCATTCTACGCTGTCAATCGCGTACCTATAGCGTGCGTGACCTTGACCAACTAGGGC,3.68 PBM z-score against 500 random probes
5,NRC3_wobSeed21_DR0_A15T_o1 (dsDNA) DNA 1: GCCGTCAAAGTTCATGGTAACGTAACAGAAAGCAGCGCGATTGACAGCGTAGAATGAAGG DNA 2: CCTTCATTCTACGCTGTCAATCGCGCTGCTTTCTGTTACGTTACCATGAACTTTGACGGC,3.49 PBM z-score against 500 random probes
6,NRC3_wobSeed74_DR3_G7C_o1 (dsDNA) DNA 1: GCTCTACTTGGTCACGGAGGTCACACACGACGGGTAGCGATTGACAGCGTAGAATGAAGG DNA 2: CCTTCATTCTACGCTGTCAATCGCTACCCGTCGTGTGTGACCTCCGTGACCAAGTAGAGC,3.61 PBM z-score against 500 random probes
7,NRC3_wobSeed74_DR3_T8C_o1 (dsDNA) DNA 1: GCTCTAGCTGGTCACGGAGGTCACACACGACGGGTAGCGATTGACAGCGTAGAATGAAGG DNA 2: CCTTCATTCTACGCTGTCAATCGCTACCCGTCGTGTGTGACCTCCGTGACCAGCTAGAGC,3.16 PBM z-score against 500 random probes
8,NRC3_wobSeed74_DR3_G10C_o1 (dsDNA) DNA 1: GCTCTAGTTCGTCACGGAGGTCACACACGACGGGTAGCGATTGACAGCGTAGAATGAAGG DNA 2: CCTTCATTCTACGCTGTCAATCGCTACCCGTCGTGTGTGACCTCCGTGACGAACTAGAGC,3.52 PBM z-score against 500 random probes
9,NRC3_wobSeed65_DR2_G27T_o1 (dsDNA) DNA 1: GCATATGTAGGTTATCGGGTCATTCATTTTGCGCATGCGATTGACAGCGTAGAATGAAGG DNA 2: CCTTCATTCTACGCTGTCAATCGCATGCGCAAAATGAATGACCCGATAACCTACATATGC,3.32 PBM z-score against 500 random probes
10,NRC3_wobSeed65_DR2_T15C_o1 (dsDNA) DNA 1: GCATATGTAGGTTACCGGGTCATTCAGTTTGCGCATGCGATTGACAGCGTAGAATGAAGG DNA 2: CCTTCATTCTACGCTGTCAATCGCATGCGCAAACTGAATGACCCGGTAACCTACATATGC,3.17 PBM z-score against 500 random probes
11,NRC3_wobSeed124_DR5_C17A_o1 (dsDNA) DNA 1: GCCCTACTGGGCCATTAAGAGGTCATTGATCATATGGCGATTGACAGCGTAGAATGAAGG DNA 2: CCTTCATTCTACGCTGTCAATCGCCATATGATCAATGACCTCTTAATGGCCCAGTAGGGC,3.9 PBM z-score against 500 random probes
12,NRC3_wobSeed124_DR5_T26C_o1 (dsDNA) DNA 1: GCCCTACTGGGCCATTCAGAGGTCACTGATCATATGGCGATTGACAGCGTAGAATGAAGG DNA 2: CCTTCATTCTACGCTGTCAATCGCCATATGATCAGTGACCTCTGAATGGCCCAGTAGGGC,3.39 PBM z-score against 500 random probes
13,NRC3_wobSeed124_DR5_T27C_o1 (dsDNA) DNA 1: GCCCTACTGGGCCATTCAGAGGTCATCGATCATATGGCGATTGACAGCGTAGAATGAAGG DNA 2: CCTTCATTCTACGCTGTCAATCGCCATATGATCGATGACCTCTGAATGGCCCAGTAGGGC,3.78 PBM z-score against 500 random probes
14,NRC3_wobSeed124_DR5_T15C_o1 (dsDNA) DNA 1: GCCCTACTGGGCCACTCAGAGGTCATTGATCATATGGCGATTGACAGCGTAGAATGAAGG DNA 2: CCTTCATTCTACGCTGTCAATCGCCATATGATCAATGACCTCTGAGTGGCCCAGTAGGGC,3.89 PBM z-score against 500 random probes
15,NRC3_wobSeed1_DR0_T12C_o1 (dsDNA) DNA 1: GCCAAACTAGGCCAAGGTCAAAGTCGGTTTGTGCCAGCGATTGACAGCGTAGAATGAAGG DNA 2: CCTTCATTCTACGCTGTCAATCGCTGGCACAAACCGACTTTGACCTTGGCCTAGTTTGGC,3.41 PBM z-score against 500 random probes
16,NRC3_wobSeed93_DR3_T17A_o1 (dsDNA) DNA 1: GCAGTCAAAGTTCATCAAGGTAACGTAAGATATGCTGCGATTGACAGCGTAGAATGAAGG DNA 2: CCTTCATTCTACGCTGTCAATCGCAGCATATCTTACGTTACCTTGATGAACTTTGACTGC,3.53 PBM z-score against 500 random probes
